In PMC10726570:
pKd: −log10 of the molar value.

Legend:
[1] = molecular target: human neonatal Fc receptor (human-FcRn) (human) (UniProt P55899)
[2] = molecular target: monkey neonatal Fc receptor (monkey-FcRn) (monkey) (UniProt Q8SPV9); assay: SPR; format and conditions not told in the text (who was immobilised, pH, buffer); shown in Fig. S1B-C
[3] = molecular target: human neonatal Fc receptor (human-FcRn) (human) (UniProt P55899); assay: as above

Substance: PAT101, recombinant human albumin (rHA)-conjugated Aspergillus flavus urate oxidase (from UniProt Q00511 1-302; P02768 25-609) (complex)
- plasma half-life T1/2 (uricase activity) after a single i.v. dose in TG mice expressing human FcRn [1]: 95 h
- pKd [2]: 5.16
- pKd [3]: 5.53
